The term Kd denotes the constant that tells how readily two partners part at equilibrium. The low end stands for a tighter complex, the high end for a looser complex.

This assay has as its target T1, Scd5 DxxDxxxD motif peptide (Saccharomyces cerevisiae, UniProt P34758).
T1 chain: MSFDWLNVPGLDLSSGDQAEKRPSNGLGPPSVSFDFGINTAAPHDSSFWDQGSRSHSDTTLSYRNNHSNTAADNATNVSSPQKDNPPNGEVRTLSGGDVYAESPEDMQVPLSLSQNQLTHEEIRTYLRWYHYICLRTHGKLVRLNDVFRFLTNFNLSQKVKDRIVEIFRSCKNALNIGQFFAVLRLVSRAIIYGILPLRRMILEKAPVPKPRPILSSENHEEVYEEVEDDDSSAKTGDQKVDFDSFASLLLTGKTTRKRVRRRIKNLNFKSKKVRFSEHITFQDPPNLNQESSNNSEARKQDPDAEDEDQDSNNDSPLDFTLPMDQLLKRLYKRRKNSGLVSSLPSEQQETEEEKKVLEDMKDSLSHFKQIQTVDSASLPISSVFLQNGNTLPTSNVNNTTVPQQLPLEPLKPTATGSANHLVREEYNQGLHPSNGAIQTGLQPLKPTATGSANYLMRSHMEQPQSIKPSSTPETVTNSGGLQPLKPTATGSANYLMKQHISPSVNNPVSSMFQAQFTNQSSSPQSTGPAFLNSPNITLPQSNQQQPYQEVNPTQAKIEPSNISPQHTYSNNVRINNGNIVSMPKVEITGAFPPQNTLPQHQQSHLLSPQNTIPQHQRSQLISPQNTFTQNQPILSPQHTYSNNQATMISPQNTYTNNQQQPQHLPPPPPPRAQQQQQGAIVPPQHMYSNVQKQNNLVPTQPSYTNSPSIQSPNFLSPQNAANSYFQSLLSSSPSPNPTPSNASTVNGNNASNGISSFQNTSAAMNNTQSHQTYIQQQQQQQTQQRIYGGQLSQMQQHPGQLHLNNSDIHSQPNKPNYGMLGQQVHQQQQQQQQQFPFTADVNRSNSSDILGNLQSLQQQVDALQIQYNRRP
Description: fluorescence polarization. On the technique in general: Fluorescence polarisation rises when a labelled molecule tumbles more slowly, as on binding a larger partner.

B1: PP1 (Glc7) (protein)
chain: MDSQPVDVDNIIDRLLEVRGSKPGQQVDLEENEIRYLCSKARSIFIKQPILLELEAPIKICGDIHGQYYDLLRLFEYGGFPPESNYLFLGDYVDRGKQSLETICLLLAYKIKYPENFFILRGNHECASINRIYGFYDECKRRYNIKLWKTFTDCFNCLPIAAIIDEKIFCMHGGLSPDLNSMEQIRRVMRPTDIPDVGLLCDLLWSDPDKDIVGWSENDRGVSFTFGPDVVNRFLQKQDMELICRAHQVVEDGYEFFSKRQLVTLFSAPNYCGEFDNAGAMMSVDESLLCSFQILKPAQKSLPRQAGGRKKK
modifications: fluorescently labelled peptide
For B1, the Kd stood at 22 µM.

The record behind these values is PMC1283537 (2005).
